Experimental data as given in PMC12753105.

How the values were obtained:
N (ancestral) [1] = target: T1, N (ancestral) (SARS-CoV-2 (Wuhan-Hu-1), UniProt P0DTC9 1-419); assay: SV-AUC, mass photometry; […], pH 7.50 ([…], pH 7.4; temperature not given; details: protein: recombinant; tags: 6xHis-TEV, cleaved; chain copies: 2; hairpin
N (ancestral) [2] = target: T1, N (ancestral); assay: SV-AUC; […], pH 7.50 ([…], pH 7.4; temperature not given; details: protein: recombinant; tags: 6xHis-TEV, cleaved; chain copies: 2; single strand

Row | Binder | binding result (N (ancestral) [1]) | binding result (N (ancestral) [2])
1 | ACGUGGCUUUGGAGACUCCGUGGAGGAGGUCUUAUCAGAGGCACGU (structured_RNA) [SL7] | binds | 
2 | TTTTTTTTTT (ssDNA) [T10] |  | binds
